Experimental data as given in the supplement of paper PMC11246515.
± gives the standard deviation of the averaged measurements.

Assay: total protein half-life in vivo (active degradation + dilution); higher = more stable protein
[1] = E. coli NCM3722 delta-clpP delta-lon delta-hslV, growth: N-lim chemostat, doubling time 6 h
[2] = E. coli NCM3722 delta-clpP, growth: N-lim chemostat, doubling time 6 h
[3] = E. coli NCM3722 delta-hslV, growth: N-lim chemostat, doubling time 6 h
[4] = E. coli NCM3722 delta-lon, growth: N-lim chemostat, doubling time 6 h
[5] = E. coli NCM3722 delta-smpB, growth: N-lim chemostat, doubling time 6 h
[6] = wild type E. coli NCM3722, growth: C-lim chemostat, doubling time 3 h
[7] = wild type E. coli NCM3722, growth: C-lim chemostat, doubling time 6 h
[8] = wild type E. coli NCM3722, growth: C-lim chemostat, doubling time 12 h
[9] = wild type E. coli NCM3722, growth: N-lim chemostat, doubling time 6 h
[10] = wild type E. coli NCM3722, growth: N-lim chemostat, doubling time 12 h
[11] = wild type E. coli NCM3722, growth: P-lim chemostat, doubling time 6 h
[12] = wild type E. coli NCM3722, growth: P-lim chemostat, doubling time 12 h

Sequence | total protein half-life in vivo [1] [h] | total protein half-life in vivo [2] [h] | total protein half-life in vivo [3] [h] | total protein half-life in vivo [4] [h] | total protein half-life in vivo [5] [h] | total protein half-life in vivo [6] [h] | total protein half-life in vivo [7] [h] | total protein half-life in vivo [8] [h] | total protein half-life in vivo [9] [h] | total protein half-life in vivo [10] [h] | total protein half-life in vivo [11] [h] | total protein half-life in vivo [12] [h]
MTPFMTEDFLLDTEFARRLYHDYAKDQPIFDYHCHLPPQQIAEDYRFKNLYDIWLKGDHYKWRAMRTNGVAERLCTGDASDREKFDAWAATVPHTIGNPLYHWTHLELRRPFGITGKLLSPSTADEIWNECNELLAQDNFSARGIMQQMNVKMVGTTDDPIDSLEHHAEIAKDGSFTIKVLPSWRPDKAFNIEQATFNDYMAKLGEVSDTDIRRFADLQTALTKRLDHFAAHGCKVSDHALDVVMFAEANEAELDSILARRLAGETLSEHEVAQFKTAVLVFLGAEYARRGWVQQYHIGALRNNNLRQFKLLGPDVGFDSINDRPMAEELSKLLSKQNEENLLPKTILYCLNPRDNEVLGTMIGNFQGEGMPGKMQFGSGWWFNDQKDGMERQMTQLAQLGLLSRFVGMLTDSRSFLSYTRHEYFRRILCQMIGRWVEAGEAPADINLLGEMVKNICFNNARDYFAIELN [P0A8G3] | 4.91 ± 0.32 | 4.13 ± 0.56 | 4.83 ± 1.5 | 4.12 ± 0.18 | 3.84 ± 0.12 | 2.87 ± 0.56 | 5.94 ± 0.12 | 11.9 ± 0.95 | 4.02 ± 0.48 | 6.3 ± 0.21 | 5.26 ± 0.087 | 9.95 ± 0.88
MLEDLRANSWSLRPCCMVLAYRVAHFCSVWRKKNVLNNLWAAPLLVLYRIITECFFGYEIQAAATIGRRFTIHHGYAVVINKNVVAGDDFTIRHGVTIGNRGADNMACPHIGNGVELGANVIILGDITLGNNVTVGAGSVVLDSVPDNALVVGEKARVKVIK [P0ACC9] | – | – | – | 7.07 ± 0.2 | – | – | – | – | – | – | – | –
MSDTKRNTIGKFGLLSLTFAAVYSFNNVINNNIELGLASAPMFFLATIFYFIPFCLIIAEFVSLNKNSEAGVYAWVKSSLGGRWAFITAYTYWFVNLFFFTSLLPRVIAYASYAFLGYEYIMTPVATTIISMVLFAFSTWVSTNGAKMLGPITSVTSTLMLLLTLSYILLAGTALVGGVQPADAITVDAMIPNFNWAFLGVTTWIFMAAGGAESVAVYVNDVKGGSKSFVKVIILAGIFIGVLYSVSSVLINVFVSSKELKFTGGSVQVFHGMAAYFGLPEALMNRFVGLVSFTAMFGSLLMWTATPVKIFFSEIPEGIFGKKTVELNENGVPARAAWIQFLIVIPLMIIPMLGSNTVQDLMNTIINMTAAASMLPPLFIMLAYLNLRAKLDHLPRDFRMGSRRTGIIVVSMLIAIFAVGFVASTFPTGANILTIIFYNVGGIVIFLGFAWWKYSKYIKGLTAEERHIEATPASNVD | – | – | – | – | – | – | 3.83 | – | – | – | – | –
MSQDNNFSQGPVPQSARKGVLALTFVMLGLTFFSASMWTGGTLGTGLSYHDFFLAVLIGNLLLGIYTSFLGYIGAKTGLTTHLLARFSFGVKGSWLPSLLLGGTQVGWFGVGVAMFAIPVGKATGLDINLLIAVSGLLMTVTVFFGISALTVLSVIAVPAIACLGGYSVWLAVNGMGGLDALKAVVPAQPLDFNVALALVVGSFISAGTLTADFVRFGRNAKLAVLVAMVAFFLGNSLMFIFGAAGAAALGMADISDVMIAQGLLLPAIVVLGLNIWTTNDNALYASGLGFANITGMSSKTLSVINGIIGTVCALWLYNNFVGWLTFLSAAIPPVGGVIIADYLMNRRRYEHFATTRMMSVNWVAILAVALGIAAGHWLPGIVPVNAVLGGALSYLILNPILNRKTTAAMTHVEANSVE [P0AA82] | – | 0.878 ± 0.056 | – | – | – | 2.01 | – | – | – | – | – | –
MITNTKLDPIETASVDELQALQTQRLKWTLKHAYENVPMYRRKFDAAGVHPDDFRELSDLRKFPCTTKQDLRDNYPFDTFAVPMEQVVRIHASSGTTGKPTVVGYTQNDIDNWANIVARSLRAAGGSPKDKIHVAYGYGLFTGGLGAHYGAERLGATVIPMSGGQTEKQAQLIRDFQPDMIMVTPSYCLNLIEELERQLGGDASGCSLRVGVFGAEPWTQAMRKEIERRLGITALDIYGLSEVMGPGVAMECLETTDGPTIWEDHFYPEIVNPHDGTPLADGEHGELLFTTLTKEALPVIRYRTRDLTRLLPGTARTMRRMDRISGRSDDMLIIRGVNVFPSQLEEEIVKFEHLSPHYQLEVNRRGHLDSLSVKVELKESSLTLTHEQRCQVCHQLRHRIKSMVGISTDVMIVNCGSIPRSEGKACRVFDLRNIVGA | 4.99 ± 0.39 | – | – | – | – | 0.692 ± 0.075 | 0.955 ± 0.08 | 1.21 ± 0.14 | – | – | – | 0.624
MTQFASPVLHSLLDTDAYKLHMQQAVFHHYYDVHVAAEFRCRGDDLLGIYADAIREQVQAMQHLRLQDDEYQWLSALPFFKADYLNWLREFRFNPEQVTVSNDNGKLDIRLSGPWREVILWEVPLLAVISEMVHRYRSPQADVAQALDTLESKLVDFSALTAGLDMSRFHLMDFGTRRRFSREVQETIVKRLQQESWFVGTSNYDLARRLSLTPMGTQAHEWFQAHQQISPDLANSQRAALAAWLEEYPDQLGIALTDCITMDAFLRDFGVEFASRYQGLRHDSGDPVEWGEKAIAHYEKLGIDPQSKTLVFSDNLDLRKAVELYRHFSSRVQLSFGIGTRLTCDIPQVKPLNIVIKLVECNGKPVAKLSDSPGKTICHDKAFVRALRKAFDLPHIKKAS | 4.31 ± 1.6 | 3.07 ± 0.44 | 2.98 ± 0.068 | 4.11 ± 0.88 | 2.95 ± 0.13 | 2.28 ± 0.31 | 4.04 ± 0.27 | 5.56 ± 0.35 | 2.92 ± 0.065 | 4.49 ± 0.41 | 3.57 ± 0.071 | 5.37 ± 1
